T1: Rad3 (yeast, UniProt P06839 1-778)
T1 construct: Rad3 (XPD homologue), subunit of yeast coreTFIIH; Stood in the assays as part of coreTFIIH; also called yeast homologue of XPD; source: purified from yeast as a subunit of coreTFIIH
T1 sequence (looked up): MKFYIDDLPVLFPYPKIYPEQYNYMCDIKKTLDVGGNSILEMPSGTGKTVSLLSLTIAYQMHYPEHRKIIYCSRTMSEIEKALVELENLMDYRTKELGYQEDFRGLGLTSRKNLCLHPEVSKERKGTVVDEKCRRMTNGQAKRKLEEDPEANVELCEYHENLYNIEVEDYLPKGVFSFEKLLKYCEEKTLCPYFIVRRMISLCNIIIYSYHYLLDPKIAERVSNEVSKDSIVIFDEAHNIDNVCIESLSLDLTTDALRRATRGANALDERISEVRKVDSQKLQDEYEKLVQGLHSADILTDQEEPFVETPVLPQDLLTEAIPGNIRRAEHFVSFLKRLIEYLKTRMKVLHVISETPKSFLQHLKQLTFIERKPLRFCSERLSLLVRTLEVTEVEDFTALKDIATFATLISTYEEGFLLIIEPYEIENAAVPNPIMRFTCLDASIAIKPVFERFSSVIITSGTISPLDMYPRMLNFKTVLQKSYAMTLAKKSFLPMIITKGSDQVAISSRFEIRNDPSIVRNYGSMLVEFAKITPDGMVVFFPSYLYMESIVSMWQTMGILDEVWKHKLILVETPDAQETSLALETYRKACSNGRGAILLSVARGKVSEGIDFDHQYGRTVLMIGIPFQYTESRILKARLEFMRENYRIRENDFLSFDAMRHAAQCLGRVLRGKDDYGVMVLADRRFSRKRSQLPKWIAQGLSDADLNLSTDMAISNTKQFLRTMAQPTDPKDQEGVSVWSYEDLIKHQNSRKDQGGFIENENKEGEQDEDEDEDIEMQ

T2: Rad4–Rad23–Rad33 complex (yeast, UniProt P14736 1-754; P32628 1-398; Q04231 1-177)
T2 construct: Rad4 (XPC homologue), yeast; Rad23 (RAD23B homologue), yeast; Rad33 (CETN2 homologue), yeast; plasmid pETDuet-RAD33; also called Rad4–23–33; yeast homologue of XPC–RAD23B–CETN2; copies: + +
T2 sequence 1: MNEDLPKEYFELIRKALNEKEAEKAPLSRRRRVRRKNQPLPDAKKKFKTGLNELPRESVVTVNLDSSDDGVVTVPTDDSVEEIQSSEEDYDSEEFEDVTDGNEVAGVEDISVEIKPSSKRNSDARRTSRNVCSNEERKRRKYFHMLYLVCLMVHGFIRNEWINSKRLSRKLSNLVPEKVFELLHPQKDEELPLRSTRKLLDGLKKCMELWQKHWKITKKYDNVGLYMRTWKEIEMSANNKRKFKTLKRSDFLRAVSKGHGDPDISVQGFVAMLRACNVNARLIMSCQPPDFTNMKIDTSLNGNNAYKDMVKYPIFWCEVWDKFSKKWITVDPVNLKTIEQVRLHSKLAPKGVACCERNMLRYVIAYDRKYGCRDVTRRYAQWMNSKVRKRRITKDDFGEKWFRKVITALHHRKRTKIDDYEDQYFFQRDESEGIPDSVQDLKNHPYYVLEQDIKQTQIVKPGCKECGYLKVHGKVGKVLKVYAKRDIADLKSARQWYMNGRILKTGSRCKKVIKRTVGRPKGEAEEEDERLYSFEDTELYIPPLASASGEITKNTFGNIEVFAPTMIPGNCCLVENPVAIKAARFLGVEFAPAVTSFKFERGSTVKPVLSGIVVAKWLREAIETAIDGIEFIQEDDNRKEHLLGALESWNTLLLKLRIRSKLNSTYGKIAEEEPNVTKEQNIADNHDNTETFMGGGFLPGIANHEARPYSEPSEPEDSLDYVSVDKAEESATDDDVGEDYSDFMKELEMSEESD
T2 sequence 2: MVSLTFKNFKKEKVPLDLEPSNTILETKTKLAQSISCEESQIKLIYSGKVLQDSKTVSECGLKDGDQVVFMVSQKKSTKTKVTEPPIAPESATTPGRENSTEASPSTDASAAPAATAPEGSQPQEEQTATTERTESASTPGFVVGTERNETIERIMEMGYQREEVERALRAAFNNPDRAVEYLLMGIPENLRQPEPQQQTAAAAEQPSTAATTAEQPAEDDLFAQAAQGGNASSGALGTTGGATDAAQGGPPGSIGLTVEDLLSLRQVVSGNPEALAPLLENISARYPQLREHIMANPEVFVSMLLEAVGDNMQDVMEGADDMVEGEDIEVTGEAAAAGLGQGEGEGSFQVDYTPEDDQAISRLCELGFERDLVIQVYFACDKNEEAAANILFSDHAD
T2 sequence 3: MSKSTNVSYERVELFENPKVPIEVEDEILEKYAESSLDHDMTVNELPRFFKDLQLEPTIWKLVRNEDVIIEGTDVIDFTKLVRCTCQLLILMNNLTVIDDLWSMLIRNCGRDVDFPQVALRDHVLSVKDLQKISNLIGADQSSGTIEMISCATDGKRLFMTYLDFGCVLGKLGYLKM

B1: Ssl1 (natural protein, yeast, UniProt Q04673 1-461, looked up)
chain: MAPVVISESEEDEDRVAITRRTKRQVHFDGEGDDRVDQQQQQHSSSHRDRDKHVQRKKKKRLSNRNLQGSNGGYAWEDEIKRSWDLVKVDDEGDMASLVASIVEARKKRTAKKNITPYQRGIIRSLILTLDCSEAMLEKDLRPNRHAMIIQYAIDFVHEFFDQNPISQMGIIIMRNGLAQLVSQVSGNPQDHIDALKSIRKQEPKGNPSLQNALEMARGLLLPVPAHCTREVLIVFGSLSTTDPGDIHQTIDSLVSEKIRVKVLGLSAQVAICKELCKATNYGDESFYKILLDETHLKELFNEAVTPLPVNKINKGFTLVKMGFPTRIFEDTPTFCSCHSKLVYGGYFCPNCHSKVCSLPTVCPCCDLMLILSTHLARSYHHLMPLKTFAEVPTTEKFRSEDCFSCQSRFPILKNHKNGKLLTSSRYRCEDCKQEFCVDCDVFIHEILHNCPGCESKPVIT
notes: Ssl1 (p44 homologue), subunit of yeast coreTFIIH; Stood in the assays as part of coreTFIIH; also called yeast homologue of p44; source: purified from yeast as a subunit of coreTFIIH
B2: Ssl2 (natural protein, Saccharomyces cerevisiae, UniProt Q00578 1-843, looked up)
chain: MTDVEGYQPKSKGKIFPDMGESFFSSDEDSPATDAEIDENYDDNRETSEGRGERDTGAMVTGLKKPRKKTKSSRHTAADSSMNQMDAKDKALLQDTNSDIPADFVPDSVSGMFRSHDFSYLRLRPDHASRPLWISPSDGRIILESFSPLAEQAQDFLVTIAEPISRPSHIHEYKITAYSLYAAVSVGLETDDIISVLDRLSKVPVAESIINFIKGATISYGKVKLVIKHNRYFVETTQADILQMLLNDSVIGPLRIDSDHQVQPPEDVLQQQLQQTAGKPATNVNPNDVEAVFSAVIGGDNEREEEDDDIDAVHSFEIANESVEVVKKRCQEIDYPVLEEYDFRNDHRNPDLDIDLKPSTQIRPYQEKSLSKMFGNGRARSGIIVLPCGAGKTLVGITAACTIKKSVIVLCTSSVSVMQWRQQFLQWCTLQPENCAVFTSDNKEMFQTESGLVVSTYSMVANTRNRSHDSQKVMDFLTGREWGFIILDEVHVVPAAMFRRVVSTIAAHAKLGLTATLVREDDKIGDLNFLIGPKLYEANWMELSQKGHIANVQCAEVWCPMTAEFYQEYLRETARKRMLLYIMNPTKFQACQFLIQYHERRGDKIIVFSDNVYALQEYALKMGKPFIYGSTPQQERMNILQNFQYNDQINTIFLSKVGDTSIDLPEATCLIQISSHYGSRRQEAQRLGRILRAKRRNDEGFNAFFYSLVSKDTQEMYYSTKRQAFLVDQGYAFKVITHLHGMENIPNLAYASPRERRELLQEVLLKNEEAAGIEVGDDADNSVGRGSNGHKRFKSKAVRGEGSLSGLAGGEDMAYMEYSTNKNKELKEHHPLIRKMYYKNLKK
notes: Ssl2 (XPB homologue), subunit of yeast coreTFIIH; C-Ssl2 549–776, C-terminal region 771–843 as printed; Stood in the assays as part of coreTFIIH; also called yeast homologue of XPB; source: purified from yeast as a subunit of coreTFIIH
B3: Tfb2 (natural protein, yeast, UniProt Q02939 1-513, looked up)
chain: MSDYSLKHSVTQYLEEIPQQVQNRLYTSPATCLAIYRILPPLAKFFIMAMVFNENEVPLLDLDKWVNSNGKLQFQNAIKSMKSLHLLIPNKSSGTLMINLNPTFKISLRNALTGGEVQNSFGVVVEENVVSLDLLDEYSANKWETILHFMVGTPLAKIPSEKVLNLLKHSKLMEEVNSTGEFKITNEGFQFLLQEINSQLWTLLLQYLKMIETSKMDLVDVLHFIFMLGALEVGKAYKIDALSETQRIMLQDMRDYGLVFQKHSNDSIFYPTKLALMLTSDTKTIRSASNAMDSVLRQNREEPSVNEDGANGKSTTDITTSDDLNKAGLKNQDIPDGSLIVETNFKIYSYSNSPLQIAVLSLFVHLKARFVNMVLGQITRESIRRALTNGITADQIIAYLETHAHPQMRRLAEEKLEKKLELDPNCKEPLQVLPPTVVDQIRLWQLELDRVITYEGSLYSDFETSQEYNLLSKYAQDIGVLLWKDDKKKKFFISKEGNSQVLDFAKRKLKKKQ
notes: Tfb2 (p52 homologue), subunit of yeast coreTFIIH; Tfb2C 412–513 as printed; Stood in the assays as part of coreTFIIH; also called yeast homologue of p52; source: purified from yeast as a subunit of coreTFIIH

What all share (settings): both partners purified
For one assay, the target named is T1, Rad3. Briefly: cryo-EM structure; coreTFIIH and Rad4–Rad23–Rad33 on −24*/+24 AAF-DNA with ATP, glycerol gradient with glutaraldehyde; Map 1 3.86 Å (TFIIH), Map 2 9.2 Å, Map 3 7.9 Å; Rad4, Rad33 and the Tfb1 PH domain placed by rigid-body docking of known structures or homology models.
A further assay deals with T2, Rad4–Rad23–Rad33 complex. Briefly: cross-linking; XL-MS: TFIIH/Rad4–Rad23–Rad33 assembled on −24/+24 AAF-DNA, 1 mg/mL in 20 mM HEPES pH 7.6, 300 mM potassium acetate, 5% glycerol, 5 mM DTT; 6 mM DSBU on ice 2 h; MeroX, FDR <1%.
The assay “Ssl2” addresses B2. Briefly: cryo-EM structure; coreTFIIH and Rad4–Rad23–Rad33 on −24*/+24 AAF-DNA with ATP, glycerol gradient with glutaraldehyde; Map 1 3.86 Å (TFIIH), Map 2 9.2 Å, Map 3 7.9 Å; Rad4, Rad33 and the Tfb1 PH domain placed by rigid-body docking of known structures or homology models.

B1: in the assay with Rad3, the binding result is recorded as “binds”.

As to B2, in the assay with Rad4–Rad23–Rad33 complex, the binding result is listed as “binds”.

On to B3, for which the binding result with Ssl2 is reported as “binds”.

These data come from publication PMC8184850, “Cryo-EM structure of TFIIH/Rad4–Rad23–Rad33 in damaged DNA opening in nucleotide excision repair” (Nature Communications, 2021).
